Biological target: MBP-mCherry-YY1 (Homo sapiens, UniProt P25490 1-414)
Assay: EMSA; 10 uM Zn2+, 100 mM KCl, no polyP; 2 uM protein, 25 nM probe; Motif EMSA: 10 mM Tris pH 7.5, 50 mM KCl, DTT, Tween 20, 5 mM MgCl2, ~25 nM probe, room temperature 30 min; G4 EMSA: 10 mM Tris-HCl pH 7.5, 100 mM KCl, 10 uM Zn, 1 mM DTT, 3% glycerol, room temperature 30 min; anisotropy: same without glycerol, on ice 30 min
Conditions: protein: recombinant; tags: N-MBP-TEV, C-mCherry; label: 5' IRDye 700 on strand 1; G4 as stated by authors, annealed with S4 in 100 mM KCl; S3/S4 otherwise pair with mismatches

Chain of MBP-mCherry-YY1 (P25490 whole entry): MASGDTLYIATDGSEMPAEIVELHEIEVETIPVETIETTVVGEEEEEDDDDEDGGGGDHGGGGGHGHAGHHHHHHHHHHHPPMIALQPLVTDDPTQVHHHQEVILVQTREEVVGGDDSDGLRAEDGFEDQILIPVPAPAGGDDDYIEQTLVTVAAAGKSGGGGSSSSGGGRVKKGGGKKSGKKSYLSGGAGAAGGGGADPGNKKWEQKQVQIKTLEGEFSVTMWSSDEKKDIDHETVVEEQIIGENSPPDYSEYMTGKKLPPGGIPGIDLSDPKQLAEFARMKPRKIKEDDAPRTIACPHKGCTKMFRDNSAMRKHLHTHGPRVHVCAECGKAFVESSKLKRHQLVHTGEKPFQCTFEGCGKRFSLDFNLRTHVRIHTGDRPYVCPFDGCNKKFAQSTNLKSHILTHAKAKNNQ

B1: human telomere G4 (hTEL) probe (structured_DNA)
DNA 1: AAAGGGTTAGTGTTAGTGTTAGGGAA
DNA 2: TTCCCTAACCCTAACCCTAACCCTTT
- binding result: binds
